T1: FLI-1 (UniProt Q01543 1-452)
T1 sequence: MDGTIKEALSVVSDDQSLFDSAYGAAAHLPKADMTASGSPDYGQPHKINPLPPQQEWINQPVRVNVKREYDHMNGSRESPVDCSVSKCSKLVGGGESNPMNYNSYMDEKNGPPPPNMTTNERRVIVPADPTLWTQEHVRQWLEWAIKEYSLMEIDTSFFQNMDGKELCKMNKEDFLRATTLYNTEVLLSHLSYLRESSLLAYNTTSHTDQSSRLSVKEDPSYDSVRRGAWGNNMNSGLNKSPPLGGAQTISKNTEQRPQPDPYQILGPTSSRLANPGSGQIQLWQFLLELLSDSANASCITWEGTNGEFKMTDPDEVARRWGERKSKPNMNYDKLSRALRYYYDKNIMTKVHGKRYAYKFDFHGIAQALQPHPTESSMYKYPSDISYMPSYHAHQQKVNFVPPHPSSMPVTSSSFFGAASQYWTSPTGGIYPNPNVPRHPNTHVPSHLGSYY

B1: -51 ETS (dsDNA)
DNA 1: CCCGGGTTTCCGGACTGGGCTG
DNA 2: CAGCCCAGTCCGGAAACCCGGG
B2: -51 ETSmut (dsDNA)
DNA 1: CCCGGGTCGGTGGACTGGGCTG
DNA 2: CAGCCCAGTCCACCGACCCGGG

Key:
FLI-1 [1] = target: T1, FLI-1; assay: EMSA; supershift with anti-FLI-1; 2 mM HEPES-NaOH pH 7.9, 5 mM KCl, 2% glycerol, 0.01 mM EDTA, 0.25 mM DTT, 0.1 mg/ml BSA, 5 ng/ul poly dI-dC, 50 fmol probe, 40 min at 4 C; 4% native gel, 0.5x TBE; settings: protein: ivt; label: 32P; blunt
ELF-1 [2] = target: T2, ELF-1 (UniProt P32519 1-619); assay: EMSA; anti-ELF-1 inhibits, weak supershift; 2 mM HEPES-NaOH pH 7.9, 5 mM KCl, 2% glycerol, 0.01 mM EDTA, 0.25 mM DTT, 0.1 mg/ml BSA, 5 ng/ul poly dI-dC, 50 fmol probe, 40 min at 4 C; 4% native gel, 0.5x TBE; settings: protein: ivt; label: 32P; blunt
T2 sequence (P32519 whole entry): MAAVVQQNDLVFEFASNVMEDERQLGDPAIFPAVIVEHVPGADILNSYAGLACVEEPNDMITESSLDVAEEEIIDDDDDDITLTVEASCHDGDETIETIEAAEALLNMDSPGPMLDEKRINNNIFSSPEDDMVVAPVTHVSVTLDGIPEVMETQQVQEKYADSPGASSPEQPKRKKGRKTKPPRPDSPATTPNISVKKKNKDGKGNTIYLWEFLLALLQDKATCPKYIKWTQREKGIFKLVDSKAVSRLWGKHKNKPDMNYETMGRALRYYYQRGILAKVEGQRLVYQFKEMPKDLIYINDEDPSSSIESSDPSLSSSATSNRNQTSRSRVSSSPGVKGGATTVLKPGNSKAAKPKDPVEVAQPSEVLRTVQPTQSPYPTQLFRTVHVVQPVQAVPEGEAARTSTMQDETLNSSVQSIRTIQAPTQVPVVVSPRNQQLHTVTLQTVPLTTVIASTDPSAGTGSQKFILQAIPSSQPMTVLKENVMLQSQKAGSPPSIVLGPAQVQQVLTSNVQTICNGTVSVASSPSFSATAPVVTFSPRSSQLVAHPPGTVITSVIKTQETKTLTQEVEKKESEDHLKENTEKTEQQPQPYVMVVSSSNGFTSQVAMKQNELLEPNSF

FLI-1 [3] = target: T1, FLI-1; assay: EMSA; 2 mM HEPES-NaOH pH 7.9, 5 mM KCl, 2% glycerol, 0.01 mM EDTA, 0.25 mM DTT, 0.1 mg/ml BSA, 5 ng/ul poly dI-dC, 50 fmol probe, 40 min at 4 C; 4% native gel, 0.5x TBE; settings: protein: ivt; label: 32P as probe; blunt
ELF-1 [4] = target: T2, ELF-1; assay: as above; settings: protein: ivt; label: 32P as probe; blunt

| Binder | binding result (FLI-1 [1]) | binding result (ELF-1 [2]) | binding result (FLI-1 [3]) | binding result (ELF-1 [4]) |
| --- | --- | --- | --- | --- |
| B1 | binds | binds | – | – |
| B2 | – | – | no binding | no binding |

Reference: paper PMC3171469, “Multiple ETS Family Proteins Regulate PF4 Gene Expression by Binding to the Same ETS Binding Site”
